System: IgG antibodies induced by ovalbumin
Assay: immunity test: IgG antibodies induced by ovalbumin in blood serum, ELISA 450 nm absorbance
Format: in vivo, sprague dawley (SD) rats
Details: SD rats, 1 mg ovalbumin at zero and fourteenth day, seventh day
Description: In another aspect of the embodiment, sprague dawley (SD) rats having four to six weeks of age are divided into three groups. Immune response is induced at zero day and fourteenth days by respectively encapsulating 1 mg of ovalbumin in the embeddable micro-needle patch for transdermal drug delivery, injecting saline in muscles, and injecting 1 mg of ovalbumin solution in muscles so as to produce correspondingly IgG antibodies, and blood is drawn from venous sinus under collarbones of the rats at zero day, seventh day, fourteenth day and twenty-first day. The drawn blood is detected by ELISA (enzyme-linked immunosorbent assay) to obtain 450 nm absorbance such that the contents of IgG antibodies antibody induced by ovalbumin in blood serum are determined.

B1: ovalbumin (protein, UniProt P01012 2-386, looked up)
Ovalbumin: GSIGAASMEFCFDVFKELKVHHANENIFYCPIAIMSALAMVYLGAKDSTRTQINKVVRFDKLPGFGDSIEAQCGTSVNVHSSLRDILNQITKPNDVYSFSLASRLYAEERYPILPEYLQCVKELYRGGLEPINFQTAADQARELINSWVESQTNGIIRNVLQPSSVDSQTAMVLVNAIVFKGLWEKAFKDEDTQAMPFRVTEQESKPVQMMYQIGLFRVASMASEKMKILELPFASGTMSMLVLLPDEVSGLEQLESIINFEKLTEWTSSNVMEERKIKVYLPRMKMEEKYNLTSVLMAMGITDVFSSSANLSGISSAESLKISQAVHAAHAEINEAGREVVGSAEAGVDAASVSEEFRADHPFLFCIKHIATNAVLFFGRCVSP
notes: 1 mg of ovalbumin solution injected in muscles, conventional muscle injection comparison group
B1 was tested, and the “expression of induced IgG antibodies in blood serum compared with saline control group” value was “can be discovered”.

From patent US9675789B2, “Embeddable micro-needle patch for transdermal drug delivery and method of manufacturing the same” (NATIONAL CHENG KUNG UNIVERSITY, priority 2012, dated 2017)
